Earlier results in publication PMC5830908.
Like-named read-outs stand apart in the source and are kept apart here.

Experiments:
K-Ras (Homo sapiens) [1] = target: K-Ras (Homo sapiens) (UniProt P01116)
K-Ras (Homo sapiens) [2] = target: K-Ras (Homo sapiens) (UniProt P01116); remark: listed apart in the source

For KRpep-2, the Kd (K-Ras (Homo sapiens) [1]) is given as 700 nM and the Kd (K-Ras (Homo sapiens) [2]) is given as 51 nM.
